Assay results: paper PMC9292375, “Structural basis of an epitope tagging system derived from Haloarcula marismortui bacteriorhodopsin I D94N and its monoclonal antibody GD‐26” (The Febs Journal, 2021)

Key:
Assay in all cases: ITC; synthetic peptide in the syringe titrated into GD-26 Fab or GD-26 IgG (10 μM) in the cell; 25 °C; 50 mM Tris, 150 mM NaCl, pH 7.5; one-set-of-sites model
Conditions in all cases: both partners purified
[1] = target: T1, TD peptide N4 (Gly1 to Ala4 deleted) (Haloarcula marismortui (strain ATCC …))
T1 construct: TD peptide residues 5-9 (Gly1, Thr2, Gly3 and Ala4 deleted); numbers count on: the TD peptide; source: synthetic peptide
T1 chain: TPADD

TD peptide A7E = target: T2, TD peptide A7E (A7E (stands in the printed letters))
T2 construct: TD peptide (C terminus of HmBRI) with A7E; numbers count on: the TD peptide; source: synthetic peptide
T2 chain: GTGATPEDD

TD peptide A7R = target: T3, TD peptide A7R (A7R (stands in the printed letters))
T3 construct: TD peptide (C terminus of HmBRI) with A7R; numbers count on: the TD peptide; source: synthetic peptide
T3 chain: GTGATPRDD

TD peptide A7T = target: T4, TD peptide A7T (A7T (stands in the printed letters))
T4 construct: TD peptide (C terminus of HmBRI) with A7T; numbers count on: the TD peptide; source: synthetic peptide
T4 chain: GTGATPTDD

TD peptide P6A = target: T5, TD peptide P6A (P6A (stands in the printed letters))
T5 construct: TD peptide (C terminus of HmBRI) with P6A; numbers count on: the TD peptide; source: synthetic peptide
T5 chain: GTGATAADD

[2] = target: T6, TD peptide M1 (Met attached to the N terminus) (Haloarcula marismortui HmBRI C-terminal …)
T6 construct: TD peptide (C terminus of HmBRI) with one Met attached before Gly1; source: synthetic peptide
T6 chain: MGTGATPADD

[3] = target: T7, TD peptide N2 (Gly1 and Thr2 deleted) (Haloarcula marismortui (strain ATCC …))
T7 construct: TD peptide residues 3-9 (Gly1 and Thr2 deleted); numbers count on: the TD peptide; source: synthetic peptide
T7 chain: GATPADD

binding result [1]: no binding
Kd (TD peptide A7E): 0.0464 µM
Kd (TD peptide A7R): 0.171 µM
Kd (TD peptide A7T): 0.449 µM
Kd (TD peptide P6A): 0.14 µM
Kd [2]: 0.0251 µM
Kd [3]: 0.548 µM
B1: GD-26 Fab (antigen-binding fragment of monoclonal antibody GD-26) (Fab, V domains shown)
VH: QVQLRQSGPELVKPGASVKMSCRASGYTFTNYNIHWVRQRPGQGLEWIGWIYPVDGTTKYNEKFKDKTTLTSDKSSSTAYMSLSGLTSEDSAIYFCARGLDNWGQGTSVTVSS
VL: DVVLTQTPLSLSVTIGQPASISCRSSQRLLYSNGKTYLNWFQQRPGQAPKYLMFQVSKLGPGIPARFSGSGSETDFTLKISRVEAEDLGVYYCFQGTFFPHTFGGGTKLEMK
notes: Fab heavy chain of GD-26; whole chain in PDB 7DOH; light chain of GD-26; the Fab was secreted; source: Expi293F, transient co-transfection, secreted; purified (HisTrap Excel, Superdex 200 gel filtration)
